According to US20210206856A1 (PANDION OPERATIONS, published 2021):
Where a chain is given by its changes, count along the chain named. Names may count otherwise.

B1: MAdCAM Antibody Table 1 Clone 19 (scFv)
scFv: EVQLLESGGGLVQPGGSLRLSCAASGFTFDDYAMHWVRQAPGKGLEWVSGISWNSGSIGYADSVKGRFTISRDNSKNTLYLQMNSLRAEDTAVYYCAKDIVAAGHYYYGMDVWGQGTTVTVSSGGGGSGGGGSGGGGSGGGGSDIQMTQSPSSLSASVGDRVTITCQASQDISNYLNWYQQKPGKAPKLLIYDASNLETGVPSRFSGSGSGTDFTLTISSLQPEDFATYYCQQSYSTPLTFGGGTKVEIK
B2: MAdCAM Antibody Table 1 Clone 20 (scFv)
scFv: EVQLLESGGGLVQPGGSLRLSCAASGFTFDDYAMHWVRQAPGKGLEWVSYIDTSSSHLYYADSVKGRFTISRDNSKNTLYLQMNSLRAEDTAVYYCARDEAAAGYYGMDVWGQGTTVTVSSGGGGSGGGGSGGGGSGGGGSDIQMTQSPSSLSASVGDRVTITCQAGQDISNYLNWYQQKPGKAPKLLIYDASNLETGVPSRFSGSGSGTDFTLTISSLQPEDFATYYCQQTYSTPITFGQGTKLEIK
B3: MAdCAM Antibody Table 1 Clone 23 (scFv)
scFv: EVQLLESGGGLVQPGGSLRLSCAASGFTFSSYAMHWVRQAPGKGLEWVSGISGSGGSAYYADSVKGRFTISRDNSKNTLYLQMNSLRAEDTAVYYCATSQAPVDYYYYGMDVWGQGTTVTVSSGGGGSGGGGSGGGGSGGGGSDIQMTQSPSSLSASVGDRVTITCRASQSISSWLAWYQQKPGKAPKLLIYAASNLQRGVPSRFSGSGSGTDFTLTISSLQPEDFATYYCQQSYSIPITFGQGTKVEIK
B4: MAdCAM Antibody Table 1 Clone 6 (scFv)
scFv: EVQLLESGGGLVQPGGSLRLSCAASGFTFNNYAFHWVRQAPGKGLEWVSRINSYGTSTTYADSVKGRFTISRDNSKNTLYLQMNSLRAEDTAVYYCAREGPVAGYWYFDLWGQGTLVTVSSGGGGSGGGGSGGGGSGGGGSDIQMTQSPSSLSASVGDRVTITCRASQIIGTNLAWYQQKPGKAPKLLIYGASSLQSGVPSRFSGSGSGTDFTLTISSLQPEDFATYYCQQSYRLPFTFGQGTKVEIK
notes: also called Antibody Clone 6
B5: human IL-2 mutein fused N-terminally to human IgG1 Fc domain (SEQ ID NO: 57) (Fc fusion)
chain: APTSSSTKKTQLQLEHLLLDLQMILNGINNYKNPKLTRMLTFKFYMPKKATELKHLQCLEEELKPLEEALNLAPSKNFHLRPRDLISDINVIVLELKGSETTFMCEYADETATIVEFLNRWITFSQSIISTLTGGGGSGGGGSGGGGSGGGGSDKTHTCPPCPAPEAAGAPSVFLFPPKPKDTLMISRTPEVTCVVVDVSHEDPEVKFNWYVDGVEVHNAKTKPREEQYNSTYRVVSVLTVLHQDWLNGKEYKCKVSNKALPAPIEKTISKAKGQPREPQVYTLPPSREEMTKNQVSLTCLVKGFYPSDIAVEWESNGQPENNYKTTPPVLDSDGSFFLYSKLTVDKSRWQQGNVFSCSVMHEALHNHYTQKSLSLSPG
notes: also called IL-2 N88D V69A, Q74P-G4Sx4-Fc
B6: IL-2 mutein SEQ ID NO: 53 (Fc fusion)
chain: B5 chain with L53I
notes: also called IL-2 L53I N88D V69A, Q74P, C125S-G4Sx4-Fc
B7: IL-2 mutein SEQ ID NO: 54 (Fc fusion)
chain: B5 chain with L56I
notes: also called IL-2 L56I N88D V69A, Q74P, C125S-G4Sx4-Fc
B8: IL-2 mutein SEQ ID NO: 55 (Fc fusion)
chain: B5 chain with L80I
notes: also called IL-2 L80I N88D V69A, C125S Q74P-G4Sx4-Fc
B9: IL-2 mutein SEQ ID NO: 56 (Fc fusion)
chain: B5 chain with L118I
notes: also called IL-2 L118I N88D V69A, Q74P, C125S-G4Sx4-Fc

These binders were tested against T1, human MAdCAM expressed on cells (human, UniProt Q13477 19-382) (assay: cell binding).
T1 construct: whole, on cells; also called MADCAM1
T1 sequence (looked up): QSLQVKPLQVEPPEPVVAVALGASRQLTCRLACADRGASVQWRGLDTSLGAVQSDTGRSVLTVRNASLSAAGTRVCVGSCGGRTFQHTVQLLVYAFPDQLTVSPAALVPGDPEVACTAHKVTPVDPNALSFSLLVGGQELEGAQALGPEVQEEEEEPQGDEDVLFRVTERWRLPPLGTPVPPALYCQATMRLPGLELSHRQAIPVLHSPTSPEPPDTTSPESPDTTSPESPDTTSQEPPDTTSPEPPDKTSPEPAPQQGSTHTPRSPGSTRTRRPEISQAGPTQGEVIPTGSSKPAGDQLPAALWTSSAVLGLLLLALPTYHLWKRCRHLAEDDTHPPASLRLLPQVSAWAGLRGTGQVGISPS
B1: binds. B2: binds. B3: binds. B4: binds.

These binders were tested against T2, mouse MAdCAM expressed on cells (mouse, UniProt Q61826 22-405) (assay: cell binding).
T2 construct: whole, on cells
T2 sequence (looked up): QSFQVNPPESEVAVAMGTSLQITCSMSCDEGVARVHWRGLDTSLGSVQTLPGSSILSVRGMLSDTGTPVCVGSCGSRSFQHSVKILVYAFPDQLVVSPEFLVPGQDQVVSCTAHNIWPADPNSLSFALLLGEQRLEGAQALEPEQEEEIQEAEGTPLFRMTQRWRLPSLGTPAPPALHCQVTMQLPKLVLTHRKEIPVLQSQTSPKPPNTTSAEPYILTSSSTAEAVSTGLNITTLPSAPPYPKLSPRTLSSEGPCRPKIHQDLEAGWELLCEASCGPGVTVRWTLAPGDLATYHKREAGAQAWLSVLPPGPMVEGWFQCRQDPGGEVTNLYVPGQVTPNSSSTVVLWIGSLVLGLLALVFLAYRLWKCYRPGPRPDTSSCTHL
B1: no binding. B2: no binding. B3: no binding. B4: no binding.

What follows are binders tested against T3, recombinant mouse MAdCAM-1 (mouse, UniProt Q61826 22-365, limits assumed) (assay: Octet).
T3 construct: also called mMAdCAM-1; mouse MAdCAM-Fc
T3 sequence (looked up): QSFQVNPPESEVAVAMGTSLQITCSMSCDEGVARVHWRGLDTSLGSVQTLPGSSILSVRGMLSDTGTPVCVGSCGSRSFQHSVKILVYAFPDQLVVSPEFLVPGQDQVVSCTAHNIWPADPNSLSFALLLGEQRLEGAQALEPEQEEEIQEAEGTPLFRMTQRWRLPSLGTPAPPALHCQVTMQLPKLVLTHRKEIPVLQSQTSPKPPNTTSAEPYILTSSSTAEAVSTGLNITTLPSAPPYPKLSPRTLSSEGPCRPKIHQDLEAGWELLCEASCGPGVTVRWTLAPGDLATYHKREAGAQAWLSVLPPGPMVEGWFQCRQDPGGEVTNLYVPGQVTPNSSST
B1: no binding. B2: no binding. B3: no binding. B4: no binding.

What follows are binders tested against T4, CD25 (Homo sapiens (Human), UniProt P01589 22-240) (assay: ELISA, CD25 coated plate).
T4 construct: also called IL-2R alpha chain
T4 sequence: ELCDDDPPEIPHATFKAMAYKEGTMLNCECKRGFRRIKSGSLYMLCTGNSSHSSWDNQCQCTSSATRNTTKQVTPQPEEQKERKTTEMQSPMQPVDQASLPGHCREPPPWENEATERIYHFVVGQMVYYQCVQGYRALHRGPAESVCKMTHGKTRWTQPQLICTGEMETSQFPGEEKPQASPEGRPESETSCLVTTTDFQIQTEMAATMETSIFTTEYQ
An EC50 of less than 1 nM was found for B5 in this work. An EC50 of less than 1 nM was found for B6 in this work. An EC50 of less than 1 nM was found for B7 in this work. An EC50 of less than 1 nM was found for B8 in this work. An EC50 of less than 1 nM was found for B9 in this work.
